B1: N8C_Fab4a (Fab, V domains shown)
VH: EVQLVESGGGLVQPGGSLRLSCAASGFNLSYYSMHWVRQAPGKGLEWVASISPYYSYTYYADSVKGRFTISADTSKNTAYLQMNSLRAEDTAVYYCARSHWASYYAGAFDYWGQGTLVTVSS
VL: DIQMTQSPSSLSASVGDRVTITCRASQSVSSAVAWYQQKPGKAPKLLIYSASSLYSGVPSRFSGSRSGTDFTLTISSLQPEDFATYYCQQGYAFWHPITFGQGTKVEIK
B2: N8C_Fab4a, biotinylated (Fab, V domains shown)
VH: B1 VH
VL: B1 VL
notes: as the heavy chain of m6; as the light chain of m6; GS linker between the heavy chain and the AviTag-His6 tag; source: E. coli Rosetta (DE3), purified, biotinylated in vitro with BirA; not shown: AviTag, C-terminal, kept
B3: N8C_Fab3b, biotinylated (Fab, V domains shown)
VH: EVQLVESGGGLVQPGGSLRLSCAASGFNFSSSSIHWVRQAPGKGLEWVASISSSYGYTYYADSVKGRFTISADTSKNTAYLQMNSLRAEDTAVYYCARDPFGWAAHGVGLDYWGQGTLVTVSS
VL: DIQMTQSPSSLSASVGDRVTITCRASQSVSSAVAWYQQKPGKAPKLLIYSASSLYSGVPSRFSGSRSGTDFTLTISSLQPEDFATYYCQQSSYSLITFGQGTKVEIK
notes: as the heavy chain of m5; as the light chain of m5; GS linker between the heavy chain and the AviTag-His6 tag; Held on streptavidin beads in the IPs; source: E. coli Rosetta (DE3), purified, biotinylated in vitro with BirA; not shown: AviTag, C-terminal, kept

Tests used:
[1] = molecular target: T1, neddylated CUL1 C-terminal region bound to RBX1 (Homo sapiens, UniProt Q13616;P62877;Q15843, L421E | V451E | V452K | Y455K, NEDD8 linked to a specific site in the WHB subdomain | C-terminus linked to the cullin (isopeptide)); assay: ELISA; proteins (2 µg/ml) coated on 384-well MaxiSorp plates overnight at 4 °C; Fab titrated (Fig. 1c at 50 nM Fab); detected with anti-M13-HRP (phage) or anti-Kappa-HRP (protein); EC50 by nonlinear regression; the results call the Fabs phage-displayed, the methods give EC50 for purified Fab proteins; conditions: both partners purified
T1 construct: CUL1, human, C-terminal region residues 411-776 with solubilizing substitutions; RBX1, human; NEDD8, human, the conjugated form; also called neddylated CUL1–RBX1; source: neddylated in vitro; not shown: MBP, N-terminal, cleaved; GST, N-terminal, cleaved; copies: + +

[2] = molecular target: T2, neddylated CUL3 (endogenous) (human (endogenous in K562, 293T), UniProt Q13618;Q15843, NEDD8-modified | linked to the cullin); assay: co-IP; biotinylated Fab on streptavidin magnetic beads, K562 lysates (cells treated with DMSO, MLN4924 or CSN5i-3; N8-block), 45 min at 4 °C, immunoblotting; conditions: one partner purified
T2 construct: CUL3, human; NEDD8, human, the conjugated form; also called NEDD8-linked CUL3; source: endogenous, K562 lysate; endogenous, 293T lysate

[3] = molecular target: T3, purified recombinant CUL3 modified by NEDD8 (band on the immunoblot) (Homo sapiens, UniProt Q13618;Q15843, NEDD8 linked to a specific site in the WHB subdomain | C-terminus linked to the cullin (isopeptide)); assay: far-Western, overlay or dot blot; 200 ng neddylated or unneddylated recombinant CUL1-5 after SDS-PAGE on PVDF; 2 µg/ml biotinylated Fab as primary binder, Streptavidin-HRP; conditions: both partners purified
T3 construct: CUL3, human; NEDD8, human, the conjugated form; Resolved by SDS-PAGE, so RBX1 is not in the band; also called neddylated CUL3–RBX1; source: recombinant, purified, neddylated in vitro; not shown: GST, N-terminal, cleaved

[4] = molecular target: T4, neddylated CUL2 (endogenous) (human (endogenous in 293T), UniProt Q13617;Q15843, NEDD8-modified | linked to the cullin); assay: affinity purification with mass spectrometry; IPs with biotinylated N8C_Fab3b on streptavidin beads from lysates of human cells (293T, K562, panel of ten lines), N8-block; cells treated with DMSO, MLN4924, CSN5i-3, Indisulam, MZ1, ferric ammonium citrate or TNF (with MG132 and CB-5083 before stimuli); DIA MS; conditions: one partner purified
T4 construct: CUL2, human; NEDD8, human, the conjugated form; also called NEDD8-linked CUL2; source: endogenous, 293T lysate
T4 sequence (Q13617 whole entry, chain 1 of 2): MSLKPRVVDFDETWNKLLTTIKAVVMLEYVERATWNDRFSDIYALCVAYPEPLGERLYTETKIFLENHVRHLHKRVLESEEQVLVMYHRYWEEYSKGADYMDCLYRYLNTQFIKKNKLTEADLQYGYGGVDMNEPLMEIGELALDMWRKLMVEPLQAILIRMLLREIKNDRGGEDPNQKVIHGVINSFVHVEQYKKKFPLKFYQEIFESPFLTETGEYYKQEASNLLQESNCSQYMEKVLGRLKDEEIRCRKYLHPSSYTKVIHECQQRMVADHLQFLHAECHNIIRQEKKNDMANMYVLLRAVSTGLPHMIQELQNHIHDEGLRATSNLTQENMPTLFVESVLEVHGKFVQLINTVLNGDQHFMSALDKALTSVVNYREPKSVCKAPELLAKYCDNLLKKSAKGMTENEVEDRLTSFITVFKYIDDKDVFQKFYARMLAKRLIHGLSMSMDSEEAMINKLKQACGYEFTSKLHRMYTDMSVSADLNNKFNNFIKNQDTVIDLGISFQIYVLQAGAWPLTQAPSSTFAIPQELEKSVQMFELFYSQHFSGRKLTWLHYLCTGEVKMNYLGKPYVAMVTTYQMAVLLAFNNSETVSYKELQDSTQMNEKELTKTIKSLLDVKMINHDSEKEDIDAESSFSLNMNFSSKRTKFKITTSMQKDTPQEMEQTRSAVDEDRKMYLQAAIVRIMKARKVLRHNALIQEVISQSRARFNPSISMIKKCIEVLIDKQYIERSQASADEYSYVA
T4 sequence (Q15843 1-76, chain 2 of 2): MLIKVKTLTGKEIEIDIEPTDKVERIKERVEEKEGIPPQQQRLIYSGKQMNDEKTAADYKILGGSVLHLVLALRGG

T2 sequence (Q13618 whole entry, chain 1 of 2): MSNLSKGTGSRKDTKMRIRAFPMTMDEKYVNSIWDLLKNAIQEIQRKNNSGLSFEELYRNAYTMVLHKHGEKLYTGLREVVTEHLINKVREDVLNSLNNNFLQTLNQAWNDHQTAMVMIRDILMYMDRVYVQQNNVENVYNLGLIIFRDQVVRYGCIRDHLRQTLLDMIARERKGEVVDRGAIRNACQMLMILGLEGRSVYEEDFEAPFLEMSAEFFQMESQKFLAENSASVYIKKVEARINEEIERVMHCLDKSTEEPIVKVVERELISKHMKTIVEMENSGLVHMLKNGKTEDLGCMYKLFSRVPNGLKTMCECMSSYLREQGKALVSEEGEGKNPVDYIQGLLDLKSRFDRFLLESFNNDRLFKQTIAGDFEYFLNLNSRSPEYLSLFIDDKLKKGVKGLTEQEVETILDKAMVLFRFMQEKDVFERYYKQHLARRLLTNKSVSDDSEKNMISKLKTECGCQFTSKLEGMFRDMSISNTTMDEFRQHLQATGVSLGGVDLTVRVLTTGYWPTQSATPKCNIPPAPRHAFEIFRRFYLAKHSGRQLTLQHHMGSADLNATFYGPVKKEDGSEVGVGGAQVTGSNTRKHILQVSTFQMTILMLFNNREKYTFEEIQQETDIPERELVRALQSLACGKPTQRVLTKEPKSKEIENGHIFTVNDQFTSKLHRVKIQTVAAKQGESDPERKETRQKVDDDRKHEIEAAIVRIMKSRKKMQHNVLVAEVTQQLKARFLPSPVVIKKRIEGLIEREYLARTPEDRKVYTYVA
T2 sequence (Q15843 1-76, chain 2 of 2): as the sequence (Q15843 1-76, chain 2 of 2) above
T1 sequence (Q13616 411-776 L421E/V451E/V452K/Y455K, chain 1 of 3): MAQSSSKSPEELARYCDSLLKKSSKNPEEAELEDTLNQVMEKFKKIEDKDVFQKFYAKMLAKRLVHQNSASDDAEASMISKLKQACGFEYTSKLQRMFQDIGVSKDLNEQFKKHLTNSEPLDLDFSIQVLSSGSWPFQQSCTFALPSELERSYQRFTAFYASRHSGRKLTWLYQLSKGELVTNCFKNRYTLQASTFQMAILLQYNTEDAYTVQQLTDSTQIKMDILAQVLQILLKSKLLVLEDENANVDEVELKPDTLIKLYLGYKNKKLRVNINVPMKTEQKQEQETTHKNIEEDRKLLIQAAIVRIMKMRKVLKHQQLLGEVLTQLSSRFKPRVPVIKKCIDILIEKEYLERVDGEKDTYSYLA
T1 sequence (P62877 whole entry, chain 2 of 3, the tested form may be a part): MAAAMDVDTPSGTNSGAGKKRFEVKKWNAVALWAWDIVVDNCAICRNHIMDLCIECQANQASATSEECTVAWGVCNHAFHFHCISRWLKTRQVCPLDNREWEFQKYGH
T1 sequence (Q15843 1-76, chain 3 of 3): as the sequence (Q15843 1-76, chain 2 of 2) above
T3 sequence (Q13618 whole entry, chain 1 of 2): as the sequence (Q13618 whole entry, chain 1 of 2) above
T3 sequence (Q15843 1-76, chain 2 of 2): as the sequence (Q15843 1-76, chain 2 of 2) above

Row | Binder | fold higher EC50 than N8C_Fab1b [1] [fold] | binding result [2] | binding result [3] | binding result [4]
1 | B1 | ~3 |  |  | 
2 | B2 |  | binds | binds | 
3 | B3 |  | binds |  | binds

Source: article PMC10667097, “Activity-based profiling of cullin–RING E3 networks by conformation-specific probes” (Nature Chemical Biology, 2023)
